Results reported in patent publication US20070184522A1, “Cell death modulation via antagonists of Fasl and Fas activation” (University of Pittsburgh of the Commonwealth System of …, priority 2004, published 2007).
Entries after “also recorded” stand apart in the source; their conditions may differ. One block for each molecule: values may come before it.

Tests used:
[1] = target: T1, Fas-Fc / Fas ligand binding (Mus musculus, UniProt P25446); assay: Competition ELISA: coated Fas ligand, Fas-Fc added with increasing amounts of polypeptide; conditions: Fas ligand 1 μg/ml coated, Fas-Fc 1 μg/ml
T1 construct: purchased R&D
T1 sequence (P25446 22-169 limits assumed): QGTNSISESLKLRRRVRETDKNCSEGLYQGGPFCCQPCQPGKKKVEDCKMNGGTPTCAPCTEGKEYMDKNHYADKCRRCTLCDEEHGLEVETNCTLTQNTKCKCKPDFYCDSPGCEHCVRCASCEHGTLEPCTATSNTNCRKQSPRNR
Experimental: This antibody also recognizes Fas-Fc which is also tagged at the C-terminus by His. In FIG. 2b, a fixed amount of purified recombinant Fas-ligand was added to Fas-Fc in the absence or presence of increasing amounts of AlphaMet as indicated. Samples were subjected to pull down using proteinA agarose followed by Western blot using a polyclonal rabbit anti-FasL antibody. […] Fas ligand (1 μg/ml) was coated in the wells of a microtiter plate (triplicate wells) then 1 μg/ml of Fas-Fc was added in the absence or presence of an increasing amount of the indicated polypeptide. A 13 mer YLGA polypeptide derived from FasL also was synthesized and used. The control peptide was a scrambled 13 mer. Anti human IgM-HRP conjugates were used to detect the bound Fas-Fc. […] One-way ANOVA was carried out for determination of statistical significance. […] Cells (3×10^5) were plated in 24-well plates having Poly-L-Lysine pre-treated cover glass. 2 μg/ml of Fas ligand was added and the cells were incubated for 30 min on ice. Cells were then washed by PBS twice, and were subjected to immunostaining using anti-Fas ligand antibody and fluorescent microscopy. In Frame A, Fas ligand was not added, in B, only Fas ligand was added, in C-F, Fas ligand was added with different polypeptides as follows: AlphaMet, 12 mer YLGA, control peptide, and YLGA mutated AlphaMet, respectively.
ELISA. Synthesized polypeptides (Genemed Synthesis, Inc. South San Francisco, Calif.) were dissolved in water and diluted in the coating buffer (0.05M of Sodium Carbonate, 0.02% of Sodium Azide, pH 9.6) to a final concentration of 1 ug/ml. One hundred microliter aliquots were added to coat each well of a 96-well microtitre plate. The coated plates were then washed with PBS-Tween (0.5%) three times. The plates were blotted and dried by tapping upside down on tissue paper. They were blocked using 200 μl of 1% of BSA in PBS solution followed by a 2 hour incubation. Plates were washed another three times, Fas-Fc was added, and the plates were incubated for another 2 hours. The plates were washed three times and anti-human IgM Fc HRP conjugates were included at a final concentration of 1:20,000, and incubated for 1 hour. Plates were washed three times again and ready-to-use TMD was added and incubated for 30 minutes. The color reaction was stopped by 2M of Sulfuric Acid. Plates were applied to color read at a wave length of 450 nm.

[2] = system: Fas capping in Hepa 1-6 cells; assay: Fas capping of fluorescent protein tagged Fas in Hepa 1-6 cells; assay type: cell-based; conditions: for FasL-induced Fas capping: Hepa 1-6, FasL 1 μg/ml, AlphaMet 5 μg/ml or YLGA 12 mer 1 μg/ml, 30 minutes; for Jo2-induced Fas capping/clustering: Hepa 1-6, Jo2 100 ng/ml
Experimental: FIG. 3a presents data collected from Jurkat cells (1×10^6) treated with 2 μg/ml of Fas Ligand with or without AlphaMet for 30 minutes on ice. Cells were washed with PBS twice and then incubated with 2 mM of DTSSP in PBS for 30 minutes. The crosslinking process was stopped by 20 mM of Tris (pH 7.5) for another 30 minutes. Cells were spun down and washed with PBS twice and lyzed in RIPA buffer. Cell lysates were subjected to SDS-PAGE under non-reducing or reducing conditions (FIG. 3b) and Western blot analysis using the mouse monoclonal antibody against human Fas. FIG. 3c depicts the quantification of the data in FIG. 3a by densitometry. The data are the mean and SE from three different independent crosslinking and Western blot experiments. […] Frame A: Acceptor CFP-Fas image; Frame B: Acceptor pre-bleach CFP-Fas image; Frame C: Acceptor post-bleach image. Frame D: Donor YFP-Fas image; Frame E: Donor pre-bleach image; Frame F: […]. The CFP-Fas strength in the selected region obtained a gain of 19.3% efficiency in the presence of FasL for 15 minutes. No FRET was observed without FasL. […] FIG. 3e depicts the results of experiments in which CFP-tagged Fas or CFP control vector were transiently expressed in Hepa 1-6 Cells (3×10^5). Cells were treated with 1 μg/ml of Fas ligand or 100 ng/ml of Jo2 with or without 5 μg/ml of AlphaMet or 1 μg/ml of YLGA 12 mer for 30 minutes on ice. Cells were fixed and analyzed by fluorescence microscopy. Frame A: AlphaMet treatment only, no FasL; Frame B: Fas ligand treatment only; Frame C: Fas ligand and AlphaMet treatment; Frame D: Fas ligand and 12 mer YLGA; Frame E: Jo2 treatment only and Frame F: Jo2 and AlphaMet treatment.
Fluorescence protein tagged Fas molecules and Hepa 1-6 cells were used for these experiments. These cells were transiently co-transfected with CFP and YFP chimeric Fas expression vectors using the lipofectamine 2000 method (Invitrogen). After 24 hours of transfection, about 50% of the cells were fluorescing. The cells were treated by Fas-ligand in the presence or absence of AlphaMet for 30 minutes. Treated cells were then fixed with cold methanol and subjected to FRET analysis. Cells were considered positive if FRET efficiency was over 10%. FRET phenomenon was observed only in cells that were treated with Fas-ligand. […] In these experiments the percent of Fas capping was also determined.

inhibition of FasL binding to Fas-Fc (ELISA) [1]: significantly inhibited FasL binding
Molecule: HHIYLGATNYIY [12 mer]
FasL-induced Fas capping [2]: inhibited to the background level | Jo2-induced Fas capping/clustering [2]: reduced Jo2-induced Fas capping

Molecule: YLGA [YLGA 4 mer]
inhibition of FasL binding to Fas-Fc (ELISA) [1]: lower, yet significant inhibition

B1: alpha subunit of Met (AlphaMet), amino acid residues 1 to 306, His-tagged (receptor, mouse)
chain: MKAPTVLAPGILVLLLSLVQRSHGECKEALVKSEMNVNMKYQLPNFTAETPIQNVVLHGHHIYLGATNYIYVLNDKDLQKVSEFKTGPVLEHPDCLPCRDCSSKANSSGGVWKDNINMALLVDTYYDDQLISCGSVNRGTCQRHVLPPDNSADIQSEVHCMFSPEEESGQCPDCVVSALGAKVLLSEKDRFINFFVGNTINSSYPPGYSLHSISVRRLKETQDGFKFLTDQSYIDVLPEFLDSYPIKYIHAFESNHFIYFLTVQKETLDAQTFHTRIIRFCSVDSGLHSYMEMPLECILTEKRRKRHHHHHH
FasL-induced Fas capping [2]: inhibited to the background level | Jo2-induced Fas capping/clustering [2]: also inhibited; also recorded: reduced Jo2-induced Fas capping
